We go through four molecules from US10098960B2, “Polymer conjugate” (UCL Business PLC, priority 2015, dated 2018).

The subject of experiment [1] is aPL-induced venous thrombosis formation. As to conditions: mouse model of APS; Ioannou et al. 2009; cited from earlier work.
For experiment [2], the system named is IgA binding to immobilised β2GPI. Nature of the experiment: Competitive inhibition ELISA for IgA binding to β2GPI. Further details: species or system human. Conditions: FIG. 9. The method, then:
(§1) Competitive inhibition ELISA was carried out to test the ability of recombinant DI to inhibit binding of purified IgG from patients with APS to immobilised β2GPI. The assay was adapted from the standard β2GPI ELISA published by Ioannou et al., (BMC biotechnology 2006, 6:8) with the following amendments: the inhibitors were pre-incubated at concentrations ranging from 0 mg/ml to 200 μg/ml rather than 0 to 30 μM. Briefly, the test was carried out to test the ability of recombinant DI to inhibit binding of purified IgG from patients with APS to β2GPI coated on a plate. Recombinant DI was pre-incubated with patient serum prior to addition on the ELISA plate coated with β2GPI. Bound patient IgG was detected with an anti-human IgG HRP secondary antibody. Each sample was tested in duplicate.
Assays were carried out using identical methodology to Example 6 with the following alteration; an anti-human IgA secondary conjugated to HRP was used rather than an anti-human IgG secondary antibody.
In general terms: ELISA stands for enzyme-linked immunosorbent assay.

The subject of experiment [3] is purified IgG from patients with APS in normal human plasma (lupus anticoagulant effect). Nature of the experiment: LA (Lupus Anticoagulant) dilute Russel Viper Venom (dRVT-plus) coagulometer assay. It counts as biochemical. Conditions: 500 μg/ml antibody and 25 μg/ml DI; IgG from four APS patients; FIGS. 8A-8D. The method, then:
LA (Lupus Anticoagulant) Dilute Russel Viper Venom (dRVT-plus) Assay:
Assay reagents were used as described in manufacturer's (Haematex) instructions.
This assay reproduces the “lupus anticoagulant” (LA) effect, a test in which antibodies from serum of patients with APS cause a measurable prolongation of clotting time under specific conditions in vitro. Purified IgG from four patients with APS (shown as FIGS. 8A-8D) was pre-incubated with the DI constructs at a molar ratio of ˜1:1 (500 μg/ml antibody and 25 μg/ml DI) before being added to normal human plasma either with or without excess phospholipid—which prevents the anticoagulant effect of the IgG. The results are expressed as ratio of clotting time in absence to that in the presence of excess phospholipid. The higher the ratio, the greater the biological effect exerted by the IgG-APS.
Plasma was thawed on ice, meanwhile the Coagulometer (CA-50, Sysmex) was allowed to warm and reagents were prepared.
Patient antibodies were purified using Protein G IgG purification kit (Pierce), as described by manufacturer's instructions. IgA antibodies are purified using Jacalin beads (Pierce), as per manufacturer's instructions. […]
Plasma was dispensed into glass vials (200 μl×2) and reagents, either low [phospholipid] […] When the clot reached 50% the timing was stopped and recorded. […]

For experiment [4], the system named is APS IgG-induced femoral vein thrombus formation. Nature of the experiment: In vivo mouse blood clot model (blood vessel pinch model). Further details: species or system C57BL/6 mice. As to conditions: recombinant wild-type DI 40 μg intraperitoneally at 0 h and 48 h; 500 μg APS IgG; femoral vein pinch at 72 h; FIG. 10. The method, then: In vivo analysis of inhibition of thrombus formation by DI was carried out in a similar manner to those described within Ioannou et al., 2009, Journal of Thrombosis and Haemostasis, 7: 833-842, In vivo inhibition of antiphospholipid antibody-induced pathogenicity utilizing the antigenic target peptide domain I of beta2-glycoprotein I: proof of concept.
C57BL/6 mice (The Jackson Laboratory, Bar Harbor, Me., USA) were used for these studies.
NHS IgG and APS IgG mean protein G purified antibody obtained from Normal Healthy Subjects or APS patients respectively.
At time 0 h, 2 control groups were untreated, whereas 3 groups of mice were injected intraperitoneally with either recombinant wild-type DI (40 μg), PEGylated wild-type DI (20 μg) or PEG alone, in phosphate-buffered saline (PBS). After 60 min, 4 groups of mice were then treated intraperitoneally with 500 μg of APS IgG, while 1 group received 500 μg of NHS IgG, both in PBS. Both of these treatments were repeated at 48 h and 49 h respectively. The APS IgG dose was the minimal amount of APS IgG antibody required to increase thrombus size beyond two standard deviations (SDs) of the mean size induced by control NHS IgG post-injury. The APS IgG/DI molar ratios were 2.3:1, 1.15:1. […] A pinch stimulus was applied and the thrombus formation was visualised using a transilluminator and measured electronically. […]

The test system of experiment [5] is binding of aPLs to immobilised native antigen. Conditions: aPLs from patients with pregnancy loss and with thrombosis; Ioannou et al. 2007; cited from earlier work.
For experiment [6], the system named is binding of purified IgG from patients with APS to immobilised β2GPI. The experiment can be described thus: Competitive inhibition ELISA (IgG). Further details: species or system human. As to conditions: 175 μg/ml of test protein. The method, then: as §1
Competitive inhibition data is generally expressed as retained binding of the antibody to the antigen on the plate in the presence of the inhibitor protein (DI-PEG or DI). […] Activities of PEGylated or non-PEGylated DI are given based on % inhibition. FIGS. 7A-7F show % inhibition data for pegylated and non-pegylated DI constructs.

B1: wild-type DI: recombinant wild-type domain I of human β2GPI, SEQ ID NO: 2, approximately 7 kDa, unconjugated (protein, listed as Homo sapiens)
chain: GRTCPKPDDLPFSTVVPLKTFYEPGEEITYSCKPGYVSRGGMRKFICPLTGLWPINTLKCTPR
modifications: ends and bridges not checked
B1: in experiment [1], the “inhibition of in vivo aPL-induced venous thrombosis formation” value is “inhibit in vivo aPL-induced venous thrombosis formation”. In addition, in experiment [2], the “inhibition of IgA binding to β2GPI” value is on record as “inhibits IgA binding to β2GPI”. The “inhibition of lupus anticoagulant effect (ratio of clotting time in absence to presence of excess phospholipid)” value in experiment [3] was “inhibit this biological effect of IgG APS”. For the same molecule, the “inhibition of thrombus formation (clot size)” value in experiment [4] is listed as “prevented the formation of large blood clots”. Besides, the “inhibition of binding of aPLs to immobilised native antigen” value in experiment [5] was “inhibit the binding of aPLs”.

B2: WT DI-PEG (20 kDa): wild-type domain I β2GPI (SEQ ID NO: 2) mono-PEGylated across a disulfide bridge with 20 kDa PEG reagent 1 (conjugate, listed as Homo sapiens)
chain: GRTCPKPDDLPFSTVVPLKTFYEPGEEITYSCKPGYVSRGGMRKFICPLTGLWPINTLKCTPR
modifications: not fully specified (bridges); ends and bridges not checked; also: mono-PEGylated across a disulfide bridge, Cys places not given here
On to B2, for which the “Retained Activity of WT DI-PEG (20 kDa) Vs WT DI (%)” value in experiment [6] (Patient 1 IgG) is given as 98.5%; in experiment [6] (Patient 2 IgG) it was 74.9%; in experiment [6] (Patient 3 IgG) it was 88.3%; in experiment [6] (Patient 4 IgG), 91.5%; in experiment [6] (Patient 5 IgG) it was 70%; in experiment [6] (Patient 6 IgG) it was 91.9%.

B3: D8S, D9G mutant-PEG (20 kDa): D8S,D9G variant domain I (SEQ ID NO: 3) mono-PEGylated with 20 kDa PEG reagent (conjugate)
chain: GRTCPKPSGLPFSTVVPLKTFYEPGEEITYSCKPGYVSRGGMRKFICPLTGLWPINTLKCTPR
modifications: ends and bridges not checked; also: mono-PEGylated with 20 kDa PEG reagent, site not given here
As for B3, the “Retained Activity of D8S, D9G mutant-PEG (20 kDa) Vs D8S, D9G (%)” value in experiment [6] (Patient 1 IgG) is listed as 87.8%; in experiment [6] (Patient 2 IgG), 70.8%; in experiment [6] (Patient 3 IgG) it was 83.3%; in experiment [6] (Patient 4 IgG) it was 100%; in experiment [6] (Patient 5 IgG) it was 64%; in experiment [6] (Patient 6 IgG), 100%.

B4: DI(D8S/D9G): variant of domain I of human β2GP1, SEQ ID NO: 3, unconjugated (protein)
chain: GRTCPKPSGLPFSTVVPLKTFYEPGEEITYSCKPGYVSRGGMRKFICPLTGLWPINTLKCTPR
modifications: ends and bridges not checked
Regarding B4, in experiment [1], the “inhibition of in vivo aPL-induced venous thrombosis formation” value is listed as “inhibit in vivo aPL-induced venous thrombosis formation”. Moreover, the “inhibition of binding of aPLs to immobilised native antigen” value in experiment [5] was “inhibition is greater”.
